# Experimental data taken from patent US20250382371A1 (NATIONAL INSTITUTES OF BIOMEDICAL INNOVATION HEALTH AND …, published 2025).
# T1: cynomolgus monkey FCRL1 (XP_015310712), transiently expressed on 293T cells (cynomolgus monkey)
# T1 chain: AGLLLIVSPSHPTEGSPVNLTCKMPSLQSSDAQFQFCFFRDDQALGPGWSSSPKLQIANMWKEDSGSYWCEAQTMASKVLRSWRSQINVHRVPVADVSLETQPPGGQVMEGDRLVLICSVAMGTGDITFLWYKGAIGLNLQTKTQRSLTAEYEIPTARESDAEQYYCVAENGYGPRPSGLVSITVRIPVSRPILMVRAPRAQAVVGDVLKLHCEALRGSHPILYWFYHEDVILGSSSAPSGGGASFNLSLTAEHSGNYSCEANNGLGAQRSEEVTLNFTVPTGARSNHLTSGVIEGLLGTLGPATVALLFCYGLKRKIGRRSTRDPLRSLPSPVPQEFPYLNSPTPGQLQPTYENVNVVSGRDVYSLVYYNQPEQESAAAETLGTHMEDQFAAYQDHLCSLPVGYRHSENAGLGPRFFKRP
# T2: human FCRL1 (NCBI accession number: NP_443170.1), transiently expressed on 293T cells (human, UniProt Q96LA6 17-429)
# T2 construct: also called Fc receptor-like protein 1; CD307a
# T2 sequence: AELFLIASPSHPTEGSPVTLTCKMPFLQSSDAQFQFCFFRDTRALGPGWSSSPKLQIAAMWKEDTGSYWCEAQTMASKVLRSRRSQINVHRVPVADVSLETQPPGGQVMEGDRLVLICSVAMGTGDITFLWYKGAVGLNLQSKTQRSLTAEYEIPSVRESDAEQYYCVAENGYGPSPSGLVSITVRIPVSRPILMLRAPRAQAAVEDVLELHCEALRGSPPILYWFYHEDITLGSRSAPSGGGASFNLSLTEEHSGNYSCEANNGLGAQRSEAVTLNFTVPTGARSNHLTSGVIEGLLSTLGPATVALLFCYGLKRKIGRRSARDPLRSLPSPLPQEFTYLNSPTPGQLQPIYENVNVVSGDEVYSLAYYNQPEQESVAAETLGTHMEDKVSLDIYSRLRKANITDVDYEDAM
# T3: hFCRL1/FcRH1-His (manufactured by R&D Systems) (human, UniProt Q96LA6 17-307)
# T3 construct: Bought His-tagged recombinant human FCRL1; The protein in the assay is soluble and is probably only the extracellular part; not shown: His tag
# T3 sequence: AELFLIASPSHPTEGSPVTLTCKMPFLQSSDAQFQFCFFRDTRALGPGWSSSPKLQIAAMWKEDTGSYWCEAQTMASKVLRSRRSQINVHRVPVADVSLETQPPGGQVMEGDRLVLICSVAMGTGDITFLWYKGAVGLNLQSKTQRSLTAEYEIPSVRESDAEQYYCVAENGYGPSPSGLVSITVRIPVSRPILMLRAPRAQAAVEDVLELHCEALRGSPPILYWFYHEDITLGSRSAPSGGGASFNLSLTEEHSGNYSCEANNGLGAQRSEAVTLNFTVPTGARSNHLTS
# Tests used:
# [1] = target: T1, cynomolgus monkey FCRL1 (XP_015310712), …; test: flow cytometry on 293T cells transiently expressing cynomolgus monkey FCRL1; apparent KD from EC50 of a 4-parameter fit
# Protocol: (§1) An antigen-specific reactivity of the novel anti-human FCRL1 mouse antibody obtained in Example 4 was evaluated by Flow Cytometry (FCM). FCRL1 antigen-expressing cells were prepared by transiently expressing the recombinant FCRL1 antigen on 293T cells. A codon-optimized cDNA was synthesized based on the amino acid sequence of human FCRL1 (NCBI accession number: NP_443170.1) or cynomolgus monkey FCRL1 (XP_015310712), and a fragment in which the sequence of an internal ribosome entry site (IRES) derived from the encephalomyocarditis virus (EMCV) and the sequence of TagBFP were arranged in tandem was cloned into pcDNA 3.1hygro to construct an expression plasmid vector for human FCRL1 or cynomolgus monkey FCRL1. The purified expression vector was transfected into 293T cells, cells were collected 2 days after transfection, and binding with each antibody was confirmed by FCM.
# (§2) As the secondary antibody, when the sample is a mouse antibody, R-Phycoerythrin (PE) F(ab′)₂ Fragment Goat Anti-Mouse IgG (H+L) (Jackson ImmunoResearch) was used, and when the sample is a human antibody or a human chimeric antibody, R-Phycoerythrin (PE) F(ab′)₂ Fragment Goat Anti-Human IgG, Fcγ Fragment Specific (Jackson ImmunoResearch) was used. A solution of each secondary antibody was prepared by diluting the stock solution 200 times with an FCM buffer. After washing once, cells in each well were suspended with 100 μL of FCM buffer, and binding to each antibody was confirmed by flow cytometry (FCM).
# (§3) Cells that transiently expressed human FCRL1 or cynomolgus monkey FCRL1 were reacted with a 3-fold dilution series of each antibody starting from 100 nM (15 μg/ml) at 12 points. Data obtained by the FCM was analyzed, and a binding amount of each antibody bound to the cell was calculated as a fluorescence amount MFI derived from the PE-labeled secondary antibody. An antibody concentration and the measured MFI were plotted with respect to a logarithm of the antibody concentration, a saturated binding curve of each antibody was obtained, and regression was performed by a 4-parameter logistic model.
# [2] = target: T2, human FCRL1 (NCBI accession number: …); test: flow cytometry on 293T cells transiently expressing human FCRL1; apparent KD from EC50 of a 4-parameter fit
# Protocol: as §1, §2, §3
# [3] = target: T3, hFCRL1/FcRH1-His (manufactured by R&D …); test: SPR (Biacore 8K+), antibody captured by anti-human IgG, hFCRL1/FcRH1-His as analyte; 1:1 Binding model
# Protocol: (§4) For the purpose of comparing the binding activity of the DK681 chimeric antibody (chDK681) and the DK1142 chimeric antibody (chDK1142) obtained by connecting […] of the DK681 and DK1142 mouse antibodies obtained in Example 4 to a human IgG1 (S239C) constant region with the binding activity of the anti-FCRL1 humanized antibody obtained in Example 10 to human FCRL1, the binding activity to hFCRL1/FcRH1-His (manufactured by R&D Systems) was measured by a surface plasmon resonance method (SPR method) using Biacore8K+ (manufactured by Cytiva).
# (§5) The binding activity of the anti-FCRL1 antibody was measured as follows. An anti-human IgG antibody was immobilized on a CM5 sensor chip (manufactured by Cytiva) in accordance with the attached protocol using a Human Antibody Capture Kit (manufactured by Cytiva). An anti-FCRL1 antibody prepared at 5 μg/mL was added to a flow cell on which the Anti-human IgG antibody was immobilized at a flow rate of 10 μL/min for 30 seconds.
# (§6) Next, hFCRL1/FcRH1-His, which is prepared stepwise to 5 concentrations by 3-fold dilution from 10000 ng/ml, was monitored at a flow rate of 30 μL/min for a binding reaction for 180 seconds and a dissociation reaction for 400 seconds. For the obtained sensorgram, a kinetic constant of each antibody was calculated by fitting by a Steady state affinity model or a 1:1 Binding model using Bia Evaluation Software (manufactured by Cytiva). The calculated binding rate constant (ka), dissociation rate constant (kd) and dissociation constant [KD] of each antibody are shown in Table 5. The chDK681 is referred to as DK681 F01, and the chDK1142 is referred to as DK1142 F02.
# [4] = target: T3, hFCRL1/FcRH1-His (manufactured by R&D …); test: SPR (Biacore 8K+), antibody captured by anti-human IgG, hFCRL1/FcRH1-His as analyte; Steady state affinity model
# Protocol: as §4, §5, §6
Binder,Kd [1] [nM],Kd [2] [nM],Kd [4] [nM],koff [4] [s⁻¹],kon [4] [M⁻¹ s⁻¹],also measured
"anti-human FCRL1 mouse monoclonal antibody DK1142 (antibody, V domains shown) VH: QVQLQQSGPELVKPGASVRISCKASGYTFTSYNIHWVKQRPGQGLEWIGWIYPGDGNPKYNEKFKGKTTLTADKSSSTAYMQLSSLTSEDSAVYFCARRIHYYDYFDYWGQGTTLTVSS VL: DVLMTQTPLSLPVSLGDQASISCRSSQSIVHSNGNTYLEWYLQKPGQSPKLLIYKVSNRFSGVPDRFSGSGSGTDFTLKISRVEADDLGVYYCFQGSHVPWTFGGGTKLEIK",1.1,1.4,–,–,–,–
"DK1142 chimeric antibody (chDK1142), human IgG1 (S239C) (antibody, also called DK1142 F02; not shown: human kappa light chain constant region (pFUSE2-CLIg-hk vector)) heavy: not shown light: DVLMTQTPLSLPVSLGDQASISCRSSQSIVHSNGNTYLEWYLQKPGQSPKLLIYKVSNRFSGVPDRFSGSGSGTDFTLKISRVEADDLGVYYCFQGSHVPWTFGGGTKLEIK",–,–,–,–,–,Kd [3]: 11.4 nM; koff [3]: 0.0518 s⁻¹; kon [3]: 4.55e+06 M⁻¹ s⁻¹
"anti-human FCRL1 mouse monoclonal antibody DK1166 (antibody, V domains shown) VH: QVQLQQSGPELVKPGASVRISCKASGYTFTSYNIHWVKQRPGQGLEWIGWIYPGDGNTKYNEKFKGKTTLTADKSSSTAYMQLSSLTSEDSAVYFCARRIHYFDYFDYWGQGTTLTLSS VL: DVLMTQTPLSLPVSLGDQVSISCRSGQTIVHSNGNTYLEWYLQKPGQSPKLLIYKVSNRFSGVPDRFSGSGSGTDFTLRISRVEAEDLGVYYCFQGSHVPWTFGGGTKLEIK",1,1.5,–,–,–,–
"DK681 humanized antibody DK681 F12, human IgG1 (S239C) (antibody) heavy: not shown light: DIVMTQSPDSLAVSLGERATMNCKSSQSLLYSSNQKNYLAWYQQKPGQSPKLLIYWASTRESGVPDRFSGSGSGTDFTLTISSLQAEDVAIYYCQQYSNYPTFGQGTKVEIK",–,–,9.15,0.00259,385000,–
"DK681 humanized antibody DK681 F13, human IgG1 (S239C) (antibody) heavy: not shown light: DIVMTQSPDSLAVSLGERATMNCKSSQSLLYSSNQKNYLAWYQQKPGQSPKLLIYWASTRESGVPDRFSGSGSGTDFTLTISSLQAEDVAIYYCQQYSNYPTFGQGTKVEIK",–,–,9.84,0.00297,387000,–
"anti-human FCRL1 mouse monoclonal antibody DK1141 (antibody, V domains shown) VH: EVRLVESGGRLVQPKGSLRLSCAVSGFTFNTYAMYWIRQAPGKGLEWVARIRSKTNNFATYYADSVKDRFTISRDDSQSMLYLQMNNLKTEDTAMYYCVRDNSGSFDYWGQGTTLTVSS VL: DIVMAQSPSSLAVSVGEKVTMSCKSSQSLLHSSNQKNYLAWYQQKPGQSPNLLIYWASSRESGVPDRFTGSGSGTDFTLTISSVQAEDLATYYCQQYYSYPTFGAGTKLDLK",0.8,1.6,–,–,–,–
